How the values were obtained:
[1] = molecular target: EPAS1/ARNT4 heterodimer (Homo sapiens, UniProt Q99814;Q8WYA1-5 Q99814:1-870,Q8WYA1-5:1-602); assay: EMSA; probe described as HIF-1 site / hypoxia responsive element of VEGF
[2] = molecular target: HIF-1alpha/ARNT4 (Homo sapiens, UniProt Q16665;Q8WYA1-5 Q16665:1-826,Q8WYA1-5:1-602); assay: EMSA; HIF-1 did not form dimers with ARNT4 and bind the site
Chain of HIF-1alpha/ARNT4 (Q16665 whole entry, chain 1 of 2): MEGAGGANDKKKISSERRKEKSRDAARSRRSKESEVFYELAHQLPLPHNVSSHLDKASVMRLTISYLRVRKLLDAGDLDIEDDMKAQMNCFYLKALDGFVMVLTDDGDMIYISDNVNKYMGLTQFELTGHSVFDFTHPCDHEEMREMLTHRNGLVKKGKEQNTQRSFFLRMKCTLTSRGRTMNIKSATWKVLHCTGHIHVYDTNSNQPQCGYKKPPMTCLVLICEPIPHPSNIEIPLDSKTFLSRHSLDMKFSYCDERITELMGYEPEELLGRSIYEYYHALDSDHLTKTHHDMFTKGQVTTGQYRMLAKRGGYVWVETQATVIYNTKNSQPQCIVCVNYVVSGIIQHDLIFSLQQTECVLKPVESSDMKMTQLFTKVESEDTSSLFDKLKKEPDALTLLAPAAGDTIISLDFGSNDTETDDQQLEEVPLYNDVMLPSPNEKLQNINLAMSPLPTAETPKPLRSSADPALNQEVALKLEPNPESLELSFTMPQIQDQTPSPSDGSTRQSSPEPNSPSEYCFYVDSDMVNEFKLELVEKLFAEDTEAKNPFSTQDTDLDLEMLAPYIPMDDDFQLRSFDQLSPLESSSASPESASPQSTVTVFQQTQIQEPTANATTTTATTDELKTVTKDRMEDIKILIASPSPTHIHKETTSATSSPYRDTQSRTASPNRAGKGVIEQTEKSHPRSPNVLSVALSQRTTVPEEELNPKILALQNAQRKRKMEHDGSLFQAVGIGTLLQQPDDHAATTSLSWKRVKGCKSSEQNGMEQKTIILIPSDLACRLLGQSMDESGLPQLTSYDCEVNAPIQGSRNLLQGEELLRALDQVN
Chain of HIF-1alpha/ARNT4 (Q8WYA1 other isoform, or with tags, fused parts or gaps, chain 2 of 2): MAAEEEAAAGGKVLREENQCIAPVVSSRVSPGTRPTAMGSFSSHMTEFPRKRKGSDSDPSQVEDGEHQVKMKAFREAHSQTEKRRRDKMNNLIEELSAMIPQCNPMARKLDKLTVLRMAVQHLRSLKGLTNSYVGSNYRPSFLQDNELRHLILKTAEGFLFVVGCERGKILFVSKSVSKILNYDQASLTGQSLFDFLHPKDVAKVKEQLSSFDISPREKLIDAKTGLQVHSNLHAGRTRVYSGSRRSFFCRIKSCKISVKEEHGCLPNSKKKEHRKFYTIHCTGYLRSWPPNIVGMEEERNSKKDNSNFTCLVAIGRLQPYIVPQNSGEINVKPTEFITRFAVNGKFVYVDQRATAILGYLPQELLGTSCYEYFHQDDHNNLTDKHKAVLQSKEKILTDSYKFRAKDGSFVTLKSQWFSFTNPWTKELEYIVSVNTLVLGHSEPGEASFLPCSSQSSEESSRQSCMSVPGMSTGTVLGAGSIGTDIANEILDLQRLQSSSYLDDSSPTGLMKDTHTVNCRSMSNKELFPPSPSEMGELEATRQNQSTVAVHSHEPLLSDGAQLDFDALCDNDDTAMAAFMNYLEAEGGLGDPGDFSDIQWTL

Chain of EPAS1/ARNT4 heterodimer (Q99814 whole entry, chain 1 of 2): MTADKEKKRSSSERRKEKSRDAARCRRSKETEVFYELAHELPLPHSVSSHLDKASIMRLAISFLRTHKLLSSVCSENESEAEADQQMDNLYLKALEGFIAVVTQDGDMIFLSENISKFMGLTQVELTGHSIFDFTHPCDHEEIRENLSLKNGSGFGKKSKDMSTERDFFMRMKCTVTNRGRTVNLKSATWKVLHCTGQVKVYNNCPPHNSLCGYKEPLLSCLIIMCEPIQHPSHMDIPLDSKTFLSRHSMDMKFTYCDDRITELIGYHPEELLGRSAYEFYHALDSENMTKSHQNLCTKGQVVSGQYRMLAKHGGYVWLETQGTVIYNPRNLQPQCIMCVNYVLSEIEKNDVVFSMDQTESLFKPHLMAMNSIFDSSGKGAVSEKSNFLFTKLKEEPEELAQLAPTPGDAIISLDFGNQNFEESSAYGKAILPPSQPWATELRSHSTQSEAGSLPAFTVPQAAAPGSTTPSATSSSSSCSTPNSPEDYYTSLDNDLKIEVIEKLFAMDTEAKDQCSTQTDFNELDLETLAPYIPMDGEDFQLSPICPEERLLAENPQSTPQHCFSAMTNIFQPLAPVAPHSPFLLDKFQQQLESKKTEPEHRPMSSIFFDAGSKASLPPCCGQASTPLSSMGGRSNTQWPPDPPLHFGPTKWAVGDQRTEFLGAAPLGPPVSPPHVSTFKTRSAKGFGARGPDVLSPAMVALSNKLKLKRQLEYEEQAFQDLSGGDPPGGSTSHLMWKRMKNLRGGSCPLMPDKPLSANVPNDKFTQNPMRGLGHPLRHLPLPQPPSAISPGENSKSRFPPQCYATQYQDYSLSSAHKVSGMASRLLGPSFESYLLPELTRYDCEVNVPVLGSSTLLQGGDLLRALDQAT
Chain of EPAS1/ARNT4 heterodimer (Q8WYA1 other isoform, or with tags, fused parts or gaps, chain 2 of 2): as the sequence (Q8WYA1 other isoform, or with tags, fused parts or gaps, chain 2 of 2) above

B1: VEGF promoter HIF-1 binding site / hypoxia responsive element (dsDNA)
DNA 1: GCCCTACGTGCTGTCTCA
DNA 2: TGAGACAGCACGTAGGGC
[1]
  binding result: binds
[2]
  binding result: no binding
